Assay [1] addresses T1, human CEA (human, UniProt P06731 35-685).
T1 sequence: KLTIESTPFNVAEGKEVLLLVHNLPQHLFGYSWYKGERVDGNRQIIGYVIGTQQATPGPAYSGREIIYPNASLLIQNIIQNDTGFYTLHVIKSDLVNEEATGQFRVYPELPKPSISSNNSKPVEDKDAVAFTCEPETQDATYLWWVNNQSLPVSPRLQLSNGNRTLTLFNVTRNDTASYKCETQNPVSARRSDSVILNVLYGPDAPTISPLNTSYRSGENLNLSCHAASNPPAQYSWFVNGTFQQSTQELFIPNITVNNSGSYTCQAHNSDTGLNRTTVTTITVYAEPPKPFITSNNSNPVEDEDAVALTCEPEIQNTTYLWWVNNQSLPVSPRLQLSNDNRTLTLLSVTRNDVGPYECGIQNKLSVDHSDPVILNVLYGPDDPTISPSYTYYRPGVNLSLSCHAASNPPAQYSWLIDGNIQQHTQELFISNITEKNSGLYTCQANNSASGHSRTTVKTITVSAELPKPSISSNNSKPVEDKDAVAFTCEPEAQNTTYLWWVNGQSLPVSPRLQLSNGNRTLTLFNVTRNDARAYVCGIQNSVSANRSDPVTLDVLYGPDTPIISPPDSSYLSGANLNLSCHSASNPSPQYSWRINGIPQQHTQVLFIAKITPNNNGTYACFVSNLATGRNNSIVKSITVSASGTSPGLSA
Kind of assay: flow cytometry, human tumor cells (CEA+). The text has this:
1) Cell preparation: T cells isolated from CD3-positive human whole blood were used for a CD3 end affinity detection of multifunctional antibody molecule; positive tumor cells of corresponding antigen were used for detecting affinity of tumor antigen; for example, CD38-positive MM. 1S cells (purchased from the Cell Resource Center of Shanghai Institutes for Biological Sciences, Chinese Academy of Sciences) or RPMI 8226 cells (purchased from the Cell Resource Center of Shanghai Institutes for Biological Sciences, Chinese Academy of Sciences) were used for CD38 antigen detection, and PD-L1 positive H358 cells (purchased from the Cell Resource Center of Shanghai Institutes for Biological Sciences, Chinese Academy of Sciences) were used for PD-L1 antigen detection, and so on. The cells were resuspended with 1% FBS-PBS, adjusted to a density of 4×10⁶/ml, and 50 μl of cells were taken from each well, and then plated at 2×10⁵ per well. Cell plating was operated on ice
2) Addition of the antibody: according to the experimental design, the antibody was diluted gradually, and dilution of antibody was operated on ice. For example, the initial concentration of antibody for dilution was 3000 nM, and the antibody was diluted by 3 times with 11 concentration gradients. The diluted antibody was added to a cell well at 50 μl per well, mixed well, and shaked and incubated at 4° C. 1100 rpm/min for 2 h; after washing, the cells were resuspend in 1% FBS-PBS, and a diluted secondary antibody PE anti-human IgG FC (Biolegend, 409304) was added with a final concentration of 8 ug/ml and a volume of 50 μl/well. At the same time, a well only added with cells and secondary antibody was set as a control, the components were mixed well, and incubated under shaking at 1100 rpm/min at 4° C. for 1 h;
5) Data analysis: the data was analyzed by a flow analysis software FlowJo 7.6 thereby obtaining an average fluorescence intensity of the specific antibody concentration, plotted by a Graphpad Prism 5 with the antibody concentration (nM) as an abscissa and the average fluorescence intensity as an ordinate; the EC50 value was calculated by the method of One site—Specific binding, and the EC50 value indicated the cell affinity of the antibody to the corresponding target antigen.
(Flow cytometry measures light scatter and fluorescence of single cells or particles in a stream.)

Assay [2] concerns the target T2, Human CD3ε (human, UniProt P07766 23-126).
T2 construct: CD3 on T cells isolated from human whole blood
Description: flow cytometry, human T cells. The method in brief: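 Mean fluorescence intensity by flow cytometry was plotted against antibody concentration; EC50 came from a one site–specific binding fit. Cells (2×10⁵/well) were incubated with 11-point, 3-fold antibody dilutions starting at 3000 nM for 2 h at 4° C, then with PE anti-human IgG Fc for 1 h.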

B1: CEA-M3-AG2 (bispecific antibody)
chain 1: QVQLVQSGSELKKPGASVKVSCKASGYTFTVFGMNWVRQAPGQGLEWMGWINTKTGEATYVEEFKGRFVFSLDTSVSTAYLQISSLKADDTAVYYCARWDFYDYVEAMDYWGQGTTVTVSSASTKGPSVFPLAPSSKSTSGGTAALGCLVKDYFPEPVTVSWNSGALTSGVHTFPAVLQSSGLYSLSSVVTVPSSSLGTQTYICNVNHKPSNTKVDKKVEPKSCGGGGSGGGGSQVQLVESGGGVVQPGRSLRLSCAASGFTFSTYAMNWVRQAPGKGLEWVARIRSKYNNYATYYADSVKDRFTISRDDSKNTLYLQMNSLRAEDTAVYYCARHGNFGNSYVSWFAYWGQGTLVTVSSASVAAPSVFIFPPSDEQLKSGTASVVCLLNNFYPREAKVQWKVDNALQSGNSQESVTEQDSKDSTYSLSSTLTLSKADYEKHKVYACEVTHQGLSSPVTKSFNRGECDKTHTCPPAPAPPVAGPSVFLFPPKPKDTLMISRTPEVTCVVVDVSHEDPEVQFNWYVDGVEVHNAKTKPREEQFNSTFRVVSVLTVVHQDWLNGKEYKCKVSNKGLPAPIEKTISKTKGQPREPQVYTLPPCRDELTKNQVSLWCLVKGFYPSDIAVEWESNGQPENNYKTTPPVLDSDGSFFLYSKLTVDKSRWQQGNVFSCSVMHEALHNHYTQKSLSLSPGK
chain 2: QTVVTQEPSLTVSPGGTVTLTCRSSTGAVTTSNYANWVQQKPGQAPRGLIGGTNKRAPGVPARFSGSLLGGKAALTLSGVQPEDEAEYYCALWYSNLWVFGGGTKVEIKSSASTKGPSVFPLAPSSKSTSGGTAALGCLVKDYFPEPVTVSWNSGALTSGVHTFPAVLQSSGLYSLSSVVTVPSSSLGTQTYICNVNHKPSNTKVDKKVEPKSC
heavy: QVQLVQSGSELKKPGASVKVSCKASGYTFTVFGMNWVRQAPGQGLEWMGWINTKTGEATYVEEFKGRFVFSLDTSVSTAYLQISSLKADDTAVYYCARWDFYDYVEAMDYWGQGTTVTVSSASTKGPSVFPLAPSSKSTSGGTAALGCLVKDYFPEPVTVSWNSGALTSGVHTFPAVLQSSGLYSLSSVVTVPSSSLGTQTYICNVNHKPSNTKVDKKVEPKSCDKTHTCPPAPAPPVAGPSVFLFPPKPKDTLMISRTPEVTCVVVDVSHEDPEVQFNWYVDGVEVHNAKTKPREEQFNSTFRVVSVLTVVHQDWLNGKEYKCKVSNKGLPAPIEKTISKTKGQPREPQVCTLPPSRDELTKNQVSLSCAVKGFYPSDIAVEWESNGQPENNYKTTPPVLDSDGSFFLVSKLTVDKSRWQQGNVFSCSVMHEALHNRFTQKSLSLSPGK
light: DIQMTQSPSSLSASVGDRVTITCKASQNVGTNVAWYQQKPGKAPKLLIYSASYRYSGVPSRFSGSGSGTDFTFTISSLQPEDIATYYCHQYYTYPLFTFGQGTKVEIKRTVAAPSVFIFPPSDEQLKSGTASVVCLLNNFYPREAKVQWKVDNALQSGNSQESVTEQDSKDSTYSLSSTLTLSKADYEKHKVYACEVTHQGLSSPVTKSFNRGEC
notes: structure 3; CEA x CD3; CH2 AG2CH2
The EC50 is the concentration needed to bring the measured effect to its halfway point. Consider B1, for which the EC50 in assay [1] was 38.1 nM; in assay [2], 602 nM.

B2: CEA-M3-DG2D (bispecific antibody)
chain 1: QVQLVQSGSELKKPGASVKVSCKASGYTFTVFGMNWVRQAPGQGLEWMGWINTKTGEATYVEEFKGRFVFSLDTSVSTAYLQISSLKADDTAVYYCARWDFYDYVEAMDYWGQGTTVTVSSASTKGPSVFPLAPSSKSTSGGTAALGCLVKDYFPEPVTVSWNSGALTSGVHTFPAVLQSSGLYSLSSVVTVPSSSLGTQTYICNVNHKPSNTKVDKKVEPKSCGGGGSGGGGSQVQLVESGGGVVQPGRSLRLSCAASGFTFSTYAMNWVRQAPGKGLEWVARIRSKYNNYATYYADSVKDRFTISRDDSKNTLYLQMNSLRAEDTAVYYCARHGNFGNSYVSWFAYWGQGTLVTVSSASVAAPSVFIFPPSDEQLKSGTASVVCLLNNFYPREAKVQWKVDNALQSGNSQESVTEQDSKDSTYSLSSTLTLSKADYEKHKVYACEVTHQGLSSPVTKSFNRGECDKTHTCPPCPAPPVAGPSVFLFPPKPKDTLMISRTPEVTCVVVAVSHEAPEVQFNWYVDGVEVHNAKTKPREEQFNSTFRVVSVLTVVHQDWLNGKEYKCKVSNKGLPAPIEKTISKTKGQPREPQVYTLPPCRDELTKNQVSLWCLVKGFYPSDIAVEWESNGQPENNYKTTPPVLDSDGSFFLYSKLTVDKSRWQQGNVFSCSVMHEALHNHYTQKSLSLSPGK
chain 2: QTVVTQEPSLTVSPGGTVTLTCRSSTGAVTTSNYANWVQQKPGQAPRGLIGGTNKRAPGVPARFSGSLLGGKAALTLSGVQPEDEAEYYCALWYSNLWVFGGGTKVEIKSSASTKGPSVFPLAPSSKSTSGGTAALGCLVKDYFPEPVTVSWNSGALTSGVHTFPAVLQSSGLYSLSSVVTVPSSSLGTQTYICNVNHKPSNTKVDKKVEPKSC
heavy: QVQLVQSGSELKKPGASVKVSCKASGYTFTVFGMNWVRQAPGQGLEWMGWINTKTGEATYVEEFKGRFVFSLDTSVSTAYLQISSLKADDTAVYYCARWDFYDYVEAMDYWGQGTTVTVSSASTKGPSVFPLAPSSKSTSGGTAALGCLVKDYFPEPVTVSWNSGALTSGVHTFPAVLQSSGLYSLSSVVTVPSSSLGTQTYICNVNHKPSNTKVDKKVEPKSCDKTHTCPPCPAPPVAGPSVFLFPPKPKDTLMISRTPEVTCVVVAVSHEAPEVQFNWYVDGVEVHNAKTKPREEQFNSTFRVVSVLTVVHQDWLNGKEYKCKVSNKGLPAPIEKTISKTKGQPREPQVCTLPPSRDELTKNQVSLSCAVKGFYPSDIAVEWESNGQPENNYKTTPPVLDSDGSFFLVSKLTVDKSRWQQGNVFSCSVMHEALHNRFTQKSLSLSPGK
light: DIQMTQSPSSLSASVGDRVTITCKASQNVGTNVAWYQQKPGKAPKLLIYSASYRYSGVPSRFSGSGSGTDFTFTISSLQPEDIATYYCHQYYTYPLFTFGQGTKVEIKRTVAAPSVFIFPPSDEQLKSGTASVVCLLNNFYPREAKVQWKVDNALQSGNSQESVTEQDSKDSTYSLSSTLTLSKADYEKHKVYACEVTHQGLSSPVTKSFNRGEC
notes: structure 3; CEA x CD3; CH2 DG2DCH2
For the molecule B2, the concentration for a half-maximal effect (EC50) in assay [1] stood at 34.2 nM; in assay [2], 611 nM.

B3: CEA-M3-DG2 (bispecific antibody)
chain 1: QVQLVQSGSELKKPGASVKVSCKASGYTFTVFGMNWVRQAPGQGLEWMGWINTKTGEATYVEEFKGRFVFSLDTSVSTAYLQISSLKADDTAVYYCARWDFYDYVEAMDYWGQGTTVTVSSASTKGPSVFPLAPSSKSTSGGTAALGCLVKDYFPEPVTVSWNSGALTSGVHTFPAVLQSSGLYSLSSVVTVPSSSLGTQTYICNVNHKPSNTKVDKKVEPKSCGGGGSGGGGSQVQLVESGGGVVQPGRSLRLSCAASGFTFSTYAMNWVRQAPGKGLEWVARIRSKYNNYATYYADSVKDRFTISRDDSKNTLYLQMNSLRAEDTAVYYCARHGNFGNSYVSWFAYWGQGTLVTVSSASVAAPSVFIFPPSDEQLKSGTASVVCLLNNFYPREAKVQWKVDNALQSGNSQESVTEQDSKDSTYSLSSTLTLSKADYEKHKVYACEVTHQGLSSPVTKSFNRGECDKTHTCPPCPAPPVAGPSVFLFPPKPKDTLMISRTPEVTCVVVAVSHEDPEVQFNWYVDGVEVHNAKTKPREEQFNSTFRVVSVLTVVHQDWLNGKEYKCKVSNKGLPAPIEKTISKTKGQPREPQVYTLPPCRDELTKNQVSLWCLVKGFYPSDIAVEWESNGQPENNYKTTPPVLDSDGSFFLYSKLTVDKSRWQQGNVFSCSVMHEALHNHYTQKSLSLSPGK
chain 2: QTVVTQEPSLTVSPGGTVTLTCRSSTGAVTTSNYANWVQQKPGQAPRGLIGGTNKRAPGVPARFSGSLLGGKAALTLSGVQPEDEAEYYCALWYSNLWVFGGGTKVEIKSSASTKGPSVFPLAPSSKSTSGGTAALGCLVKDYFPEPVTVSWNSGALTSGVHTFPAVLQSSGLYSLSSVVTVPSSSLGTQTYICNVNHKPSNTKVDKKVEPKSC
heavy: QVQLVQSGSELKKPGASVKVSCKASGYTFTVFGMNWVRQAPGQGLEWMGWINTKTGEATYVEEFKGRFVFSLDTSVSTAYLQISSLKADDTAVYYCARWDFYDYVEAMDYWGQGTTVTVSSASTKGPSVFPLAPSSKSTSGGTAALGCLVKDYFPEPVTVSWNSGALTSGVHTFPAVLQSSGLYSLSSVVTVPSSSLGTQTYICNVNHKPSNTKVDKKVEPKSCDKTHTCPPCPAPPVAGPSVFLFPPKPKDTLMISRTPEVTCVVVAVSHEDPEVQFNWYVDGVEVHNAKTKPREEQFNSTFRVVSVLTVVHQDWLNGKEYKCKVSNKGLPAPIEKTISKTKGQPREPQVCTLPPSRDELTKNQVSLSCAVKGFYPSDIAVEWESNGQPENNYKTTPPVLDSDGSFFLVSKLTVDKSRWQQGNVFSCSVMHEALHNRFTQKSLSLSPGK
light: DIQMTQSPSSLSASVGDRVTITCKASQNVGTNVAWYQQKPGKAPKLLIYSASYRYSGVPSRFSGSGSGTDFTFTISSLQPEDIATYYCHQYYTYPLFTFGQGTKVEIKRTVAAPSVFIFPPSDEQLKSGTASVVCLLNNFYPREAKVQWKVDNALQSGNSQESVTEQDSKDSTYSLSSTLTLSKADYEKHKVYACEVTHQGLSSPVTKSFNRGEC
notes: structure 3; CEA x CD3; CH2 DG2CH2
In the case of B3, the EC50 was 31.9 nM in assay [1] and 609 nM in assay [2].

These data come from US20220098307A1 (WUHAN YZY BIOPHARMA, published 2022).
